Starred links: 1 amine or outer side, 2 acyl side, 3 side chain; linkers in the order of their positions; H or OH if unused. Non-standard residues stand in square brackets, D forms with d. Residues, ends and D or L forms follow the SMILES beside them. Groups on a side chain read outwards from the residue. No end group written: not given here. *: point of attachment. C18 diacid = O=C(O)CCCCCCCCCCCCCCCCC(=O)*; C16 diacid = O=C(O)CCCCCCCCCCCCCCC(=O)*; γGlu = O=C(O)[C@H](CCC(=O)[*:2])N[*:1]; Glutaryl = O=C(CCCC(=O)[*:2])[*:1]; AEEA = NCCOCCOCC(=O)O; Aib = CC(C)(N)C(=O)O
T1: human GIP receptor (Homo sapiens, UniProt P48546)
T1 construct: host or cells: HEK-293 cells, transient transfection (Lipofectamine 2000), cDNA in pCMV-Script vector
T1 sequence (P48546 22-466): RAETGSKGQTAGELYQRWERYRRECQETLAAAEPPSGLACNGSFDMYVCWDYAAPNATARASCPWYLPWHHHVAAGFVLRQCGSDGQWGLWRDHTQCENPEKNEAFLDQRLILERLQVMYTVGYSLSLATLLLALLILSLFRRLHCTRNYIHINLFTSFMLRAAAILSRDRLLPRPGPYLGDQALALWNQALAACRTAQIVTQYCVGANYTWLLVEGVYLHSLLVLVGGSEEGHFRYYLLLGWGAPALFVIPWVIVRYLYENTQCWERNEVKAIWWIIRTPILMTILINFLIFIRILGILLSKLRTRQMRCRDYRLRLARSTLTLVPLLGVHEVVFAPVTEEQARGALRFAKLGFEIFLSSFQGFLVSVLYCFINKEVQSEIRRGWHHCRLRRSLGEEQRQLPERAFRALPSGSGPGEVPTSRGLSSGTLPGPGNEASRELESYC

T2: human GIP receptor (human, UniProt P48546 22-466)
T2 sequence (looked up): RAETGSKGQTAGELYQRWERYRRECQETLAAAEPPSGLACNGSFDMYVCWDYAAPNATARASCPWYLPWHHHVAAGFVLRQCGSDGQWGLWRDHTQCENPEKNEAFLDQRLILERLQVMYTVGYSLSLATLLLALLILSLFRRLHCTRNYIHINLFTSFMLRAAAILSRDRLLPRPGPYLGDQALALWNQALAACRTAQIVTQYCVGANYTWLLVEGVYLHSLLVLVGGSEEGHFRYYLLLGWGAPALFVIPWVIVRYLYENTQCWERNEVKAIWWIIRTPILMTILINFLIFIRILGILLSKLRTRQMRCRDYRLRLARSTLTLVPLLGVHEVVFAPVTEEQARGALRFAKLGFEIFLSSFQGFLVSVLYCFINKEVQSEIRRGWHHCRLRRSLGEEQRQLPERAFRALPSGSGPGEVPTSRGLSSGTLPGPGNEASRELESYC


Tests used:
[1] = Physical stability: fibril formation in Thioflavin T (ThT) assay with agitation; type: physicochemical; conditions: Na, MilliQ (8), 25° C., agitation
Procedure, shortened: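 Read-out is continuous ThT fluorescence at 486 nm, with lag time taken where signal reaches 10% between pre- and post-transition baselines. Filtered samples (1, 5, 7.5 or 15 mg/ml; pH 7.4 phosphate buffer or NaOH-adjusted water) were stressed at 25° C. by orbital rotation at 300 rpm with one silica bead per well.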

[2] = Solubility by visual inspection of peptide solutions; type: physicochemical; conditions: Na, MilliQ (8)
Procedure, shortened: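 Solubility scored by eye: clear, colorless appearance after gentle mixing. Samples prepared at 1, 5, 7.5 or 15 mg/ml in either pH 7.4 water (NaOH-adjusted) or 50 mM sodium phosphate buffer, pH 7.4.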

human GIP receptor [3] = molecular target: T1, human GIP receptor; test: cAMP assay Alternative 2 (Gaddum assay), antagonist potency pKb; type: cell-based; conditions: Table 2C; Gaddum equation, single antagonist dose; HEK-293 hGIPR; read-out: nM (Kb)
human GIP receptor [4] = molecular target: T2, human GIP receptor; test: cell-based or functional assay
human GIP receptor [5] = molecular target: T2, human GIP receptor; test: cell-based or functional assay; remark: listed apart in the source

Row | Molecule | cAMP antagonism nM (IC50, CisBio assay) (human GIP receptor [4]) [nM] | cAMP antagonism pIC50 (CisBio assay) (human GIP receptor [4]) | nM (Kb, Schild analysis, cAMP) (human GIP receptor [5]) [nM] | pKb (Schild analysis, cAMP) (human GIP receptor [5]) | other results
1 | CC[C@H](C)[C@H](NC(=O)[C@H](CCCCN)NC(=O)[C@H](CCC(=O)O)NC(=O)[C@H](CC(C)C)NC(=O)C(C)(C)NC(=O)[C@@H](NC(=O)[C@H](CO)NC(=O)[C@H](Cc1ccc(O)cc1)NC(=O)[C@H](CCC(=O)O)NC(=O)[C@H](CO)NC(=O)[C@@H](NC(=O)[C@H](Cc1ccccc1)NC(=O)[C@@H](NC(=O)CNC(=O)[C@@H](N)CCC(=O)O)[C@@H](C)O)[C@@H](C)CC)[C@@H](C)CC)C(=O)N[C@@H](CCCCNC(=O)CC[C@H](NC(=O)CCCCCCCCCCCCCCC(=O)O)C(=O)O)C(=O)N[C@@H](CCC(N)=O)C(=O)N[C@@H](CCC(N)=O)C(=O)N[C@@H](CCC(=O)O)C(=O)N[C@@H](Cc1ccccc1)C(=O)N[C@H](C(=O)N[C@@H](CCC(=O)O)C(=O)N[C@@H](Cc1c[nH]c2ccccc12)C(=O)N[C@@H](CC(C)C)C(=O)N[C@@H](CC(C)C)C(=O)N[C@@H](C)C(=O)N[C@@H](CCC(N)=O)C(=O)N[C@@H](CCCCN)C(=O)N1CCC[C@H]1C(=O)N[C@@H](CO)C(=O)N[C@@H](CO)C(=O)NCC(=O)N[C@@H](C)C(=O)N1CCC[C@H]1C(=O)N1CCC[C@H]1C(=O)N1CCC[C@H]1C(=O)N[C@@H](CO)C(=O)O)C(C)C [AT721] (H-EGTFISEYSI[Aib]LEKIK([γGlu-C16 diacid])QQEFVEWLLAQKPSSGAPPPS-OH; N-terminus assumed) | – | – | – | – | Avr lag time (h) ([1]; 7.5 mg/ml): fnd (Fnd = fibrils not detected within experiment time (96 hours) with agitation.); Avr lag time (h) ([1]; 15 mg/ml): fnd (Fnd = fibrils not detected within experiment time (96 hours) with agitation.); Visual appearance ([2]; 7.5 mg/ml): Clear; Visual appearance ([2]; 15 mg/ml): Clear; Kb (human GIP receptor [3]): 0.31 nM
2 | CC[C@H](C)[C@H](NC(=O)[C@H](CCCCN)NC(=O)[C@H](CCC(=O)O)NC(=O)[C@H](CC(C)C)NC(=O)C(C)(C)NC(=O)[C@@H](NC(=O)[C@H](CO)NC(=O)[C@H](Cc1ccc(O)cc1)NC(=O)[C@H](CCC(=O)O)NC(=O)[C@H](CO)NC(=O)[C@@H](NC(=O)[C@H](Cc1ccccc1)NC(=O)[C@@H](NC(=O)CNC(=O)[C@@H](N)CCC(=O)O)[C@@H](C)O)[C@@H](C)CC)[C@@H](C)CC)C(=O)N[C@@H](CCCCNC(=O)C(C)(C)NC(=O)CCCCCCCCCCCCCCC(=O)O)C(=O)N[C@@H](CCC(N)=O)C(=O)N[C@@H](CCC(N)=O)C(=O)N[C@@H](CCC(=O)O)C(=O)N[C@@H](Cc1ccccc1)C(=O)N[C@H](C(=O)N[C@@H](CCC(=O)O)C(=O)N[C@@H](Cc1c[nH]c2ccccc12)C(=O)N[C@@H](CC(C)C)C(=O)N[C@@H](CC(C)C)C(=O)N[C@@H](C)C(=O)N[C@@H](CCC(N)=O)C(=O)N[C@@H](CCCCN)C(=O)N1CCC[C@H]1C(=O)N[C@@H](CO)C(=O)N[C@@H](CO)C(=O)NCC(=O)N[C@@H](C)C(=O)N1CCC[C@H]1C(=O)N1CCC[C@H]1C(=O)N1CCC[C@H]1C(=O)N[C@@H](CO)C(=O)O)C(C)C [AT720] (H-EGTFISEYSI[Aib]LEKIK([Aib-C16 diacid])QQEFVEWLLAQKPSSGAPPPS-OH; N-terminus assumed) | – | – | – | – | Avr lag time (h) ([1]; 7.5 mg/ml): fnd (Fnd = fibrils not detected within experiment time (96 hours) with agitation.); Avr lag time (h) ([1]; 15 mg/ml): fnd (Fnd = fibrils not detected within experiment time (96 hours) with agitation.); Visual appearance ([2]; 7.5 mg/ml): Clear; Visual appearance ([2]; 15 mg/ml): Clear; Kb (human GIP receptor [3]): 0.29 nM
3 | EGTFISEYSIAMEKIK(C16 diacid)QQEFVQWLLAQK-NH2 (N-terminus assumed; SMILES CC[C@H](C)[C@H](NC(=O)[C@H](CO)NC(=O)[C@H](Cc1ccc(O)cc1)NC(=O)[C@H](CCC(=O)O)NC(=O)[C@H](CO)NC(=O)[C@@H](NC(=O)[C@H](Cc1ccccc1)NC(=O)[C@@H](NC(=O)CNC(=O)[C@@H](N)CCC(=O)O)[C@@H](C)O)[C@@H](C)CC)C(=O)N[C@@H](C)C(=O)N[C@@H](CCSC)C(=O)N[C@@H](CCC(=O)O)C(=O)N[C@@H](CCCCN)C(=O)N[C@H](C(=O)N[C@@H](CCCCNC(=O)CCCCCCCCCCCCCCC(=O)O)C(=O)N[C@@H](CCC(N)=O)C(=O)N[C@@H](CCC(N)=O)C(=O)N[C@@H](CCC(=O)O)C(=O)N[C@@H](Cc1ccccc1)C(=O)N[C@H](C(=O)N[C@@H](CCC(N)=O)C(=O)N[C@@H](Cc1c[nH]c2ccccc12)C(=O)N[C@@H](CC(C)C)C(=O)N[C@@H](CC(C)C)C(=O)N[C@@H](C)C(=O)N[C@@H](CCC(N)=O)C(=O)N[C@@H](CCCCN)C(N)=O)C(C)C)[C@@H](C)CC) [AT482] | 14.1 | 7.9 | – | – | –
4 | Glutaryl-GTFISDYSI[Aib]MDKIK(C16 diacid)QQDFVNWLLAQKPSSGAPPPS-OH [AT763] | – | – | 0.14 | 9.9 | –
5 | Glutaryl-GTFISDYSIAMDKIK(C16 diacid)QQDFVEWLLAQKPSSGAPPPS-OH (SMILES CC[C@H](C)[C@H](NC(=O)[C@H](CO)NC(=O)[C@H](Cc1ccc(O)cc1)NC(=O)[C@H](CC(=O)O)NC(=O)[C@H](CO)NC(=O)[C@@H](NC(=O)[C@H](Cc1ccccc1)NC(=O)[C@@H](NC(=O)CNC(=O)CCCC(=O)O)[C@@H](C)O)[C@@H](C)CC)C(=O)N[C@@H](C)C(=O)N[C@@H](CCSC)C(=O)N[C@@H](CC(=O)O)C(=O)N[C@@H](CCCCN)C(=O)N[C@H](C(=O)N[C@@H](CCCCNC(=O)CCCCCCCCCCCCCCC(=O)O)C(=O)N[C@@H](CCC(N)=O)C(=O)N[C@@H](CCC(N)=O)C(=O)N[C@@H](CC(=O)O)C(=O)N[C@@H](Cc1ccccc1)C(=O)N[C@H](C(=O)N[C@@H](CCC(=O)O)C(=O)N[C@@H](Cc1c[nH]c2ccccc12)C(=O)N[C@@H](CC(C)C)C(=O)N[C@@H](CC(C)C)C(=O)N[C@@H](C)C(=O)N[C@@H](CCC(N)=O)C(=O)N[C@@H](CCCCN)C(=O)N1CCC[C@H]1C(=O)N[C@@H](CO)C(=O)N[C@@H](CO)C(=O)NCC(=O)N[C@@H](C)C(=O)N1CCC[C@H]1C(=O)N1CCC[C@H]1C(=O)N1CCC[C@H]1C(=O)N[C@@H](CO)C(=O)O)C(C)C)[C@@H](C)CC) [AT762] | – | – | 0.15 | 9.8 | –
6 | SGTFISDYSIAMDKIK([AEEA-AEEA-γGlu-C18 diacid])QQDFVNWLLAQKPSSGAPPPS-OH (N-terminus assumed; SMILES CC[C@H](C)[C@H](NC(=O)[C@H](CO)NC(=O)[C@H](Cc1ccc(O)cc1)NC(=O)[C@H](CC(=O)O)NC(=O)[C@H](CO)NC(=O)[C@@H](NC(=O)[C@H](Cc1ccccc1)NC(=O)[C@@H](NC(=O)CNC(=O)[C@@H](N)CO)[C@@H](C)O)[C@@H](C)CC)C(=O)N[C@@H](C)C(=O)N[C@@H](CCSC)C(=O)N[C@@H](CC(=O)O)C(=O)N[C@@H](CCCCN)C(=O)N[C@H](C(=O)N[C@@H](CCCCNC(=O)COCCOCCNC(=O)COCCOCCNC(=O)CC[C@H](NC(=O)CCCCCCCCCCCCCCCCC(=O)O)C(=O)O)C(=O)N[C@@H](CCC(N)=O)C(=O)N[C@@H](CCC(N)=O)C(=O)N[C@@H](CC(=O)O)C(=O)N[C@@H](Cc1ccccc1)C(=O)N[C@H](C(=O)N[C@@H](CC(N)=O)C(=O)N[C@@H](Cc1c[nH]c2ccccc12)C(=O)N[C@@H](CC(C)C)C(=O)N[C@@H](CC(C)C)C(=O)N[C@@H](C)C(=O)N[C@@H](CCC(N)=O)C(=O)N[C@@H](CCCCN)C(=O)N1CCC[C@H]1C(=O)N[C@@H](CO)C(=O)N[C@@H](CO)C(=O)NCC(=O)N[C@@H](C)C(=O)N1CCC[C@H]1C(=O)N1CCC[C@H]1C(=O)N1CCC[C@H]1C(=O)N[C@@H](CO)C(=O)O)C(C)C)[C@@H](C)CC) [AT437] | 35.5 | 7.5 | – | – | –
7 | EGTFISDYSIXMDKIKQQDFVNWLLAQKPSSGAPPPS (Aib at 13; C16-diacid on Lys18 side chain, no linker; C-terminal COOH; GIP(1-42) numbering) [AT760] | – | – | 0.46 | 9.3 | –
8 | EGTFISDYSIAMDKIHQQDFVNWLLAQK [GIP(3-30)] | 33.8 | 7.5 | 3.5 | 8.5 | –

— patent publication US20230416330A1, “Optimized GIP Peptide Analogues” (Antag Therapeutics ApS, priority 2019, published 2023)
